The labels stand for the following.
B1: mIL-12Rβ1_(D1-D5)-Strep-II Tag (non pre-dimerized) (receptor, mouse, UniProt Q60837 20-565, looked up)
chain: QLGASGPGDGCCVEKTSFPEGASGSPLGPRNLSCYRVSKTDYECSWQYDGPEDNVSHVLWCCFVPPNHTHTGQERCRYFSSGPDRTVQFWEQDGIPVLSKVNFWVESRLGNRTMKSQKISQYLYNWTKTTPPLGHIKVSQSHRQLRMDWNVSEEAGAEVQFRRRMPTTNWTLGDCGPQVNSGSGVLGDIRGSMSESCLCPSENMAQEIQIRRRRRLSSGAPGGPWSDWSMPVCVPPEVLPQAKIKFLVEPLNQGGRRRLTMQGQSPQLAVPEGCRGRPGAQVKKHLVLVRMLSCRCQAQTSKTVPLGKKLNLSGATYDLNVLAKTRFGRSTIQKWHLPAQELTETRALNVSVGGNMTSMQWAAQAPGTTYCLEWQPWFQHRNHTHCTLIVPEEEDPAKMVTHSWSSKPTLEQEECYRITVFASKNPKNPMLWATVLSSYYFGGNASRAGTPRHVSVRNQTGDSVSVEWTASQLSTCPGVLTQYVVRCEAEDGAWESEWLVPPTKTQVTLDGLRSRVMYKVQVRADTARLPGAWSHPQRFSFEVQIS
B5: mIL-12B (p40), subunit of mIL-12 in the cryo-EM complexes (mIL-12b-Casp3-AviTag-His6, tags cleaved) (natural protein, mouse, UniProt P43432 23-335, looked up)
chain: MWELEKDVYVVEVDWTPDAPGETVNLTCDTPEEDDITWTSDQRHGVIGSGKTLTITVKEFLDAGQYTCHKGGETLSHSHLLLHKKENGIWSTEILKNFKNKTFLKCEAPNYSGRFTCSWLVQRNMDLKFNIKSSSSSPDSRAVTCGMASLSAEKVTLDQRDYEKYSVSCQEDVTCPTAEETLPIELALEARQQNKYENYSTSFFIRDIIKPDPPKNLQMKPLKNSQVEVSWEYPDSWSTPHSYFSLKFFVRIQRKKEKMKETEEGCNQKGAFLVEKTSTEVQCKGGNVCVQAQDRYYNSSCSKWACVPCRVRS

Assay [1] addresses T1, mIL-12Rβ2_(D1-D6)-Strep-II Tag (non pre-dimerized) (mouse, UniProt P97378 24-637).
T1 sequence (looked up): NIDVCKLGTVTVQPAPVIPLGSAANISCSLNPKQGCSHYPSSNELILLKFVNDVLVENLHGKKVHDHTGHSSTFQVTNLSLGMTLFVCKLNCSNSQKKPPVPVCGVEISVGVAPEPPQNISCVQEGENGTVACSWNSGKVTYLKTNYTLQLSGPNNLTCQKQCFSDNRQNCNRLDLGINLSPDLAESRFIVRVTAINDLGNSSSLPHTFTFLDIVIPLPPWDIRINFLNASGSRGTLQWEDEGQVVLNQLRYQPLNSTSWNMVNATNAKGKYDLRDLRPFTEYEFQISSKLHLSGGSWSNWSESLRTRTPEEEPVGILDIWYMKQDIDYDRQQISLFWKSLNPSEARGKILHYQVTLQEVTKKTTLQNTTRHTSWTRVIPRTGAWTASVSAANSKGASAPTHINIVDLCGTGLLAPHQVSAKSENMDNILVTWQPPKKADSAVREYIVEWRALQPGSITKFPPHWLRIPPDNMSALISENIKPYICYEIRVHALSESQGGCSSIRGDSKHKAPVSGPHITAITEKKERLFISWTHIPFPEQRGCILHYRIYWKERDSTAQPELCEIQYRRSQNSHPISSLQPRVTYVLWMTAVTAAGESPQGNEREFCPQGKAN
Description: cryo-EM structure.

The target of assay [2] is T2, hIL-12B (p40), subunit of hIL-23 in the cryo-EM complex (human, UniProt P29460 23-328).
T2 sequence (looked up): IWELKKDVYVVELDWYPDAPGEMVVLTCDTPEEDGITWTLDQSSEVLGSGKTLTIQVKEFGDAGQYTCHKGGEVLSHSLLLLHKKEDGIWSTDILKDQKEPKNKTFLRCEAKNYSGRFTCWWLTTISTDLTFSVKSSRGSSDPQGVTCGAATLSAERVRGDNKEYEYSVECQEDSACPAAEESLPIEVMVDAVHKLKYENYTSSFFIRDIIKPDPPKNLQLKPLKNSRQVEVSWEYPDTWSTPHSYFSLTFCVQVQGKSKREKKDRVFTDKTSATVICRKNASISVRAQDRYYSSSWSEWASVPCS
Description: cryo-EM structure.

Assay [3] addresses hIL-23R-CaM (complete extracellular segment of human IL-23 receptor fused to calmodulin) (human, UniProt Q5VWK5 24-355; P0DP23 5-149). Description: cryo-EM structure.
In assay [4] the target is T3, hIL-12B (p40) of the crystallised hIL-23 (hIL-23a:hIL-12b co-transfection) (human, UniProt P29460 23-328).
T3 sequence (looked up): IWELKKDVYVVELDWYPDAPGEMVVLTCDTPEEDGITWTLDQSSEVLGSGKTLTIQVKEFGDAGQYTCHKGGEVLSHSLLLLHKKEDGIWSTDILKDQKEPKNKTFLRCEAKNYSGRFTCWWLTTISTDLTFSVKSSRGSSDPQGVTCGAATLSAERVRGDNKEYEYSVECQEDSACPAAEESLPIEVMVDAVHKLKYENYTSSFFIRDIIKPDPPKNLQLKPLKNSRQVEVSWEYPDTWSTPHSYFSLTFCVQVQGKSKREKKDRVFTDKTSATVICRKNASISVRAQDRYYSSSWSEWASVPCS
As to the kind of experiment: crystal structure.

In assay [5] the target is hIL-12Rβ1_(D3-D5) (domains 3 to 5 of human IL-12 receptor β1) (human, UniProt P42701). As to the kind of experiment: crystal structure.
Assay [6] addresses B1. Description: cryo-EM structure.
Assay [7] deals with B5. As to the kind of experiment: cryo-EM structure.
Assay [8] addresses T4, mIL-12B (p40), untagged, of the crystallised mIL-12 (mouse, UniProt P43432 23-335).
T4 sequence (looked up): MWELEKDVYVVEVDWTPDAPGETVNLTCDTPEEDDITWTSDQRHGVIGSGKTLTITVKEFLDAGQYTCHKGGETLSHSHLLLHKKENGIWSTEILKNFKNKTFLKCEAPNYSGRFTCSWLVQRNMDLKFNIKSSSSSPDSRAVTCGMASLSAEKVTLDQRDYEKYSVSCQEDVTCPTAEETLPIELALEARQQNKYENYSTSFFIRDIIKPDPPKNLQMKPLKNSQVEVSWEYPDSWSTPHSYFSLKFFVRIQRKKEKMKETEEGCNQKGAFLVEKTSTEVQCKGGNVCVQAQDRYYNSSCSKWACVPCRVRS
Description: crystal structure.

The source of these data is article doi:10.1101/2023.03.13.532366 (bioRxiv, 2023).

As to B1, in assay [1], the binding result is reported as “binds”.

B2: hIL-23A (p19), subunit of hIL-23 in the cryo-EM complex (natural protein, human, UniProt Q9NPF7 20-189, looked up)
chain: RAVPGGSSPAWTQCQQLSQKLCTLAWSAHPLVGHMDLREEGDEETTNDVPHIQCGDGCDPQGLRDNSQFCLQRIHQGLIFYEKLLGSDIFTGEPSLLPDSPVGQLHASLLGLSQLLQPEGHHWETQQIPSLSPSQPWQRLLLRFKILRSLQAFVAVAARVFAHGAATLSP
Regarding B2, the binding result in assay [2] and in assay [3] was “binds” throughout.

B3: hIL-23A (p19) of the crystallised hIL-23 (hIL-23a:hIL-12b co-transfection) (natural protein, human, UniProt Q9NPF7 20-189, looked up)
chain: RAVPGGSSPAWTQCQQLSQKLCTLAWSAHPLVGHMDLREEGDEETTNDVPHIQCGDGCDPQGLRDNSQFCLQRIHQGLIFYEKLLGSDIFTGEPSLLPDSPVGQLHASLLGLSQLLQPEGHHWETQQIPSLSPSQPWQRLLLRFKILRSLQAFVAVAARVFAHGAATLSP
In the case of B3, in assay [4], the binding result is recorded as “binds”.

B4: Fab4_(CrystalKappa) (Crystal Kappa form of Fab4) (Fab, V domains shown)
VH: QVQLVESGGGVVQPGRSLRLSCAASGFTFTSYGMSWVRQAPGKGLEWVAGISYDASDTEYADSVKGRFTISRDNSKNTLYLQMNSLRAEDTAVYYCARSPDYIIDYGFDYWGRGTLVTVSS
VL: AIQMTQSPSSLSASVGDRVTITCRASQGISSDLAWYQQKPGKAPKLLIYDASSLQSGVPSRFSGSGSGTDFTLTISSLQPEDFATYYCQQYWWYPFTFGQGTKVEIK
For the molecule B4, the binding result in assay [5] was “binds”.
B5: the binding result in assay [6] was “binds”.

B6: murine IL-12 (mIL-12), heterodimer of mIL-12A (p35) and mIL-12B (p40), as in the cryo-EM receptor complexes (complex, mouse)
chain 1: RVIPVSGPARCLSQSRNLLKTTDDMVKTAREKLKHYSCTAEDIDHEDITRDQTSTLKTCLPLELHKNESCLATRETSSTTRGSCLPPQKTSLMMTLCLGSIYEDLKMYQTEFQAINAALQNHNHQQIILDKGMLVAIDELMQSLNHNGETLRQKPPVGEADPYRVKMKLCILLHAFSTRVVTINRVMGYLSSA
chain 2: MWELEKDVYVVEVDWTPDAPGETVNLTCDTPEEDDITWTSDQRHGVIGSGKTLTITVKEFLDAGQYTCHKGGETLSHSHLLLHKKENGIWSTEILKNFKNKTFLKCEAPNYSGRFTCSWLVQRNMDLKFNIKSSSSSPDSRAVTCGMASLSAEKVTLDQRDYEKYSVSCQEDVTCPTAEETLPIELALEARQQNKYENYSTSFFIRDIIKPDPPKNLQMKPLKNSQVEVSWEYPDSWSTPHSYFSLKFFVRIQRKKEKMKETEEGCNQKGAFLVEKTSTEVQCKGGNVCVQAQDRYYNSSCSKWACVPCRVRS
With B6, the binding result in assay [6] and in assay [1] was “binds” throughout.

B7: mIL-12A (p35), untagged subunit of mIL-12 in the cryo-EM complexes (natural protein, mouse, UniProt P43431 23-215, looked up)
chain: RVIPVSGPARCLSQSRNLLKTTDDMVKTAREKLKHYSCTAEDIDHEDITRDQTSTLKTCLPLELHKNESCLATRETSSTTRGSCLPPQKTSLMMTLCLGSIYEDLKMYQTEFQAINAALQNHNHQQIILDKGMLVAIDELMQSLNHNGETLRQKPPVGEADPYRVKMKLCILLHAFSTRVVTINRVMGYLSSA
As for B7, the binding result in assay [7] and in assay [1] was “binds” throughout.

B8: mIL-12A (p35) of the crystallised mIL-12 (mIL-12a-AviTag-His6, digested with Caspase-3) (natural protein, mouse, UniProt P43431 23-215, looked up)
chain: RVIPVSGPARCLSQSRNLLKTTDDMVKTAREKLKHYSCTAEDIDHEDITRDQTSTLKTCLPLELHKNESCLATRETSSTTRGSCLPPQKTSLMMTLCLGSIYEDLKMYQTEFQAINAALQNHNHQQIILDKGMLVAIDELMQSLNHNGETLRQKPPVGEADPYRVKMKLCILLHAFSTRVVTINRVMGYLSSA
As to B8, the binding result in assay [8] was “binds”.
